From article PMC3388541

Legend:
Settings in all cases: remark: other sources report otherwise
[1] = target: T1, ScHSP26 (Saccharomyces cerevisiae), P15992; assay: native MS
T1 chain: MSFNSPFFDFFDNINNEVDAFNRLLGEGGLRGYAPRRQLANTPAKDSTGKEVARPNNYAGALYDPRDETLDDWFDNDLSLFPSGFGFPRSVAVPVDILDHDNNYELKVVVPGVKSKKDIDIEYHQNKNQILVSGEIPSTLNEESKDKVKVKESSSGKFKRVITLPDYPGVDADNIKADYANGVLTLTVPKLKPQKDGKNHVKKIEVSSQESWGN

[2] = target: T1, ScHSP26 (Saccharomyces cerevisiae), …; assay: native MS
[3] = target: T1, ScHSP26 (Saccharomyces cerevisiae), …; assay: SEC-MALS
[4] = target: T1, ScHSP26 (Saccharomyces cerevisiae), …; assay: native MS
[5] = target: T1, ScHSP26 (Saccharomyces cerevisiae), …; assay: native MS
[6] = target: T1, ScHSP26 (Saccharomyces cerevisiae), …; assay: native MS
[7] = target: T1, ScHSP26 (Saccharomyces cerevisiae), …; assay: native MS
[8] = target: T1, ScHSP26 (Saccharomyces cerevisiae), …; assay: native MS

B1: ScHSP26, P15992 1-214 (natural protein)
chain: T1 chain
stoichiometry N [1]: 40 subunits | stoichiometry N [2]: 2 subunits | stoichiometry N [3]: 34 subunits | stoichiometry N [4]: 2 subunits | stoichiometry N [5]: 32 to 42 subunits | stoichiometry N [6]: 40 subunits | stoichiometry N [7]: 2 subunits | stoichiometry N [8]: 24 to 42 subunits
